Test results reported in patent US20210214436A1 (DRAGONFLY THERAPEUTICS, published 2021).

T1: BCMA expressed on myeloma cells (MM.1R, KMS12-PE) (human, UniProt Q02223 1-184)
T1 construct: Human multiple myeloma cell lines expressing BCMA; also called surface BCMA; MM.1R myeloma cells
T1 sequence: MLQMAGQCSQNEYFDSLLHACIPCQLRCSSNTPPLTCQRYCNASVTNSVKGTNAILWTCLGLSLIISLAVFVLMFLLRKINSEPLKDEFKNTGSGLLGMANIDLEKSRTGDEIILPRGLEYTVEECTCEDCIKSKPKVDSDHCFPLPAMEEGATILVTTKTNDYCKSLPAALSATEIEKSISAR

B1: A49-F4-TriNKET-BCMA (bispecific antibody, V domains shown)
VH 1: EVQLLESGGGLVQPGGSLRLSCAASGFTFSDNAMGWVRQAPGKGLEWVSAISGPGSSTYYADSVKGRFTISRDNSKNTLYLQMNSLRAEDTAVYYCAKVLGWFDYWGQGTLVTVSS
VL 1: EIVLTQSPGTLSLSPGERATLSCRASQSVSDEYLSWYQQKPGQAPRLLIHSASTRATGIPDRFSGSGSGTDFTLAISRLEPEDFAVYYCQQYGYPPDFTFGQGTKVEIK
VH 2: EVQLVESGGGLVKPGGSLRLSCAASGFTFSSYSMNWVRQAPGKGLEWVSSISSSSSYIYYADSVKGRFTISRDNAKNSLYLQMNSLRAEDTAVYYCARGAPMGAAAGWFDPWGQGTLVTVSS
VL 2: DIQMTQSPSSVSASVGDRVTITCRASQGISSWLAWYQQKPGKAPKLLIYAASSLQSGVPSRFSGSGSGTDFTLTISSLQPEDFATYYCQQGVSFPRTFGGGTKVEIK
notes: Only variable domains can be tied to the molecule
B2: BCMA monoclonal antibody (EM-901) (antibody, V domains shown)
VH: B1 VH 1
VL: B1 VL 1

Target: T1, BCMA expressed on myeloma cells (MM.1R, …)
Assay: flow cytometry on MM.1R cells
Method: F4-TriNKETs were diluted, and were incubated with MM.1R cells. […] Cells were analyzed by flow cytometry, binding MFI to cell expressed BCMA was normalized to secondary antibody controls to obtain fold over background values.

Row | Binder | binding result
1 | B1 | binds
2 | B2 | binds
